This assay has as its target T1, human AXL expressed on the cell surface of tumor cell lines (human, UniProt P30530 26-894).
T1 construct: whole, on cells; also called cell surface-expressed AXL; cell-based AXL
T1 sequence (looked up): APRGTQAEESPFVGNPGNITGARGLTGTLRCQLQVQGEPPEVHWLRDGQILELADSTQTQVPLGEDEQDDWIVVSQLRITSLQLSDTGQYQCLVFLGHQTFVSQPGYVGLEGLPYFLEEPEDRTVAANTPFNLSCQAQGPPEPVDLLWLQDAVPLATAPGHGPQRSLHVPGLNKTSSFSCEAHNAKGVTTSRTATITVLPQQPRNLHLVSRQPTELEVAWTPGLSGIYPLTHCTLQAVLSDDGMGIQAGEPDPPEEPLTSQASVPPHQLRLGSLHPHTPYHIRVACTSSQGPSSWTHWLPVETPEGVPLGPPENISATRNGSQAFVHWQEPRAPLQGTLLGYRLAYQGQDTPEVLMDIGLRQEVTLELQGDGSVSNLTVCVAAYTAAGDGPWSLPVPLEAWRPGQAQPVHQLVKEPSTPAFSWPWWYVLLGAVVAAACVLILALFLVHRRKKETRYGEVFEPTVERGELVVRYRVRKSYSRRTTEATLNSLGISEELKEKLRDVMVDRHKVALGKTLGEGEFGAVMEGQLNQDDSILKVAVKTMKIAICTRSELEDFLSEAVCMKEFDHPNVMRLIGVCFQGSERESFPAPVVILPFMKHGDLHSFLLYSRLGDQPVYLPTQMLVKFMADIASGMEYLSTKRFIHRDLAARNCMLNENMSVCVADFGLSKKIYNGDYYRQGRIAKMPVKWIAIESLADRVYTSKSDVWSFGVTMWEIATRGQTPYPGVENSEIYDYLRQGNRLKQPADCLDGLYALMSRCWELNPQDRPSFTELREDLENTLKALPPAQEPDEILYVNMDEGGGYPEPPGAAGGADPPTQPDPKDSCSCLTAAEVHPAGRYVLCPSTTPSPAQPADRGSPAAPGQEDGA
Put plainly: FACS on NCI-H292 cells, apparent Kd, human Fc format. Here is the method: FACS binding assay. Adherent cells were dissociated with non-enzymatic Sigma Cell Dissociation Solution (Cat. No. C5789). Cells suspensions were added to polypropylene, V-bottom 96-well plates and incubated for 2 hours on ice with primary antibodies at concentrations ranging from 100 nM to 0.001 nM or at a single dose of 100 nM (for the non-specific control). After incubation and washes, cells were incubated with fluorescently labeled secondary antibody (Alexa Fluor® 488 anti-human IgG from Jackson Cat. No 709-546-098) for 1 hour on ice, then washed. Cell viability was determined using Fixable viability dye 450 (20 min on ice). Stained cells were fixed in 1% formaldehyde at 4° C. and stored at 4° C. until acquisition which was performed the next day.
Binding of recombinant chimeric Abs to three cell lines was assessed by FACS as described above. The apparent Bmax and Kd determination is shown below in Table 14.

B1: NRC-sdAb001-Fc (VHH-human IgG1 Fc fusion) (Fc fusion)
chain: QVKLEESGGGLVQAGGSLRLSCTASASISSFDIMGWYRQAPGKQRELVAAITTLDIANYRDSVKGRFTISRDNAKNTVYLQMDSLKPEDTARYHCAAFQSDQNYWGQGTQVTVSS
notes: VHH fused N-terminally to human IgG1 Fc, made in HEK293 cells; also called NRC-sdAb0001-Fc; NRC-sdAb001-hIgG1; not shown: human IgG1 Fc
For B1, the Kd worked out at 0.105 nM.

The values above are taken from US20240076389A1 (NATIONAL RESEARCH COUNCIL OF CANADA, published 2024).
